A short description of this data set: yeast display, Sf9 membrane polyspecificity reagent, FACS + sequencing; frameworks hold sequencing errors. An outline of the steps: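 Galactose induction of a Saccharomyces cerevisiae BJ5465 synthetic nanobody display library ran 36–48 hours. The cells were then stained for 1 hour at 4 °C with 10% biotinylated, detergent-solubilized Sf9 membrane reagent, pulled down on streptavidin microbeads and FACS-sorted into low and high (top ~1%) gates on expression and reagent-binding fluorescence. Labels for polyreactivity follow the gate of origin.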
For the sequence “QVQLVESGGGLVQAGGSLRLSCAASGGTLRGNAMGWYRQAPGKERELVAAISGSAGRTYYADSVKGRFTISRDNAKNTVYLQMTSLKPVDTAVYYCAASRRVVKMDYWGQGTQVTVSS”, the “polyreactivity (PSR sort gate)” value is on record as “high polyreactivity”. For the sequence “QVQLVESGGGLVQAGGSLRLSCAASGGTLYLYAMGWYRQAPGKERELVAAISYNGGSTYAESVKGRFTISRDNAKNTVYLQKNSLKPEDTAVYYCAADRSPRGLGGYWGQGTQVTVSS”, the “polyreactivity (PSR sort gate)” value is “low polyreactivity”. As to “QVQLVESGGGLVQAGGSLRLSCAASGGTPQNAMGWYRQAPGKDRELVAAISKRGGSTYYADSVKGRFTISRDNAKNTGYLQMNSLKPEDTAVYDCAAVSQRAQHTSEYDYWGQGTQVTVSS”, the “polyreactivity (PSR sort gate)” value is listed as “high polyreactivity”.

Consider “QVQLVESGGGLVQAGGSLRLSCAASGGTQRYYAMGWYRQAPGKERDFVASISRSGGSTYYADTVKGRFTISRDNAKNTVYLQMNSLKPEDTAVYYCAAYWSPGYTTRRGYWGQGTQVTVSS”, for which the “polyreactivity (PSR sort gate)” value is “high polyreactivity”. For the sequence “QVQLVESGGGLVQAGGSLRLSCAASGGTQRYYVMGSYRQAPGKERELVAAISWSGDSTYYADSVKGRFTISRDNAKNTVYLQMNSLKPEDTAVYYCAATYYLTYYYGQANHCYDYWGQGTQVTVSS”, the “polyreactivity (PSR sort gate)” value is “low polyreactivity”. For “QVQLVESGGGLVQAGGSLRLSCAASGGTSIYNDMGWYRQAPGKERELVAAISWSGGSTYYADSVKGRFTISRDNAKNTVYLQMNSLKPEDTAVYYCATQGFYKDYSRYDYWGQVTQVTVSS”, the “polyreactivity (PSR sort gate)” value is “low polyreactivity”.

Consider “QVQLVESGGGLVQAGGSLRLSCAASGGTSQRYVMGWYRQAPGKERELVAAITSTGSTYYADSVKWRFTISRDNAKNTVYLQMNSLKPEDTAVYYCATGRLRIYKSYYWGQGTQVTVSS”, for which the “polyreactivity (PSR sort gate)” value is on record as “high polyreactivity”. The same measure for “QVQLVESGGGLVQAGGSLRLSCAASGGTYRSNAMGWYRQAPGKERELVAASTNYADSVKGRFTISRDNAKNTVYLQMNSLKPEDTAVYYCAAGPTDSQTGMDYWGQGTQVTVSS”: “low polyreactivity”; for “QVQLVESGGGLVQAGGSLRLSCAASGHIFLGNVMGWYRQAPGKERELVAAISKRGGRTYYADSVKGRFTISRDNAKNTVYLQMNSLKPEDTAVYYCAAVIDSREEYWGQGTQVTVSS”: “high polyreactivity”; for “QVQLVESGGGLVQAGGSLRLSCAASGHSFFYYTMGWYRQAPGKERELVAGITIGGSTNYADSVKGRFTISRDNAKNTVYLQMNSLKPEETAVYYCKKRYVVSRKYDYWGQGTQVTVSS”: “low polyreactivity”. In the case of “QVQLVESGGGLVQAGGSLRLSCAASGHTFRFYTMGWSRQAPGKEREFVAAIRRRTGSTYYADSVKGRFTISRDNAKNTVYLQMNSLKPEDTAVYYCNAVGDARYNYWGQGTQVTVSS” it was “high polyreactivity”; in that of “QVQLVESGGGLVQAGGSLRLSCAASGIFAWNAMGWYRQAPGKERELVAAISWSGGSTYADSVKGRFTISRDNAKNTVYLQMNSLKPEDTAVYYCAKVSSLTSKSDYSGQGTQVTVSS”, “low polyreactivity”. In the case of “QVQLVESGGGLVQAGGSLRLSCAASGIFFLYGMGWYIQAPGKQRELVAVISTRDTTDYADSVKGRFTISRDKSKNTVNIQMNSLKPEDTAVYFCAATARSRSYSWSKLNYWGQGTQVTLSS”, the “polyreactivity (PSR sort gate)” value is listed as “low polyreactivity”.

Take “QVQLVESGGGLVQAGGSLRLSCAASGIFGGYAMGWYIQAPRKERELVAAITSGGSTYYADSVKGRFTISRDNAKNTVYLQMNSLKPEDTAVYYCAARPRGTYSRLGYWGQGTQVTVSS”: the “polyreactivity (PSR sort gate)” value was “high polyreactivity”. Regarding “QVQLVESGGGLVQAGGSLRLSCAASGIFGSYAMGWYRQAPGKERELVAAISSGGSTYYADSVKGRFTISRDNAKNTVYLQMNSLKPEDTAVYYCAKRYGRAYRSYYWGQGTQVTVSS”, the “polyreactivity (PSR sort gate)” value is listed as “high polyreactivity”. “QVQLVESGGGLVQAGGSLRLSCAASGIFLKYAKGWYRPAPGKERELVPAIRKRGGSTYYADSVKGRFTISRDNAKNTVYLQMNSLKPEDTAVYYCATRYTYHPGSAGFDYWGQGTQVTVSS”: the “polyreactivity (PSR sort gate)” value is given as “high polyreactivity”. The same measure for “QVQLVESGGGLVQAGGSLRLSCAASGIFRRYAMGWYREAPGKERELVAAISSNGGSTYYADSVKGRFTISRDNAKNTVYLQMNSLKPEDTAVYYCNADVYVWNYKYYSWGQGTQVTVSS”: “high polyreactivity”; for “QVQLVESGGGLVQAGGSLRLSCAASGIFRYYAMGWYRQAPGKERELVASITGGGSTYYADSVKGRFTISRDNAKMTVYLQLNSLKPEDTAVYYCNTAGAYYRWTPYYYWGQGTQVTVSS”: “high polyreactivity”.

As to “QVQLVESGGGLVQAGGSLRLSCAASGIFRYYAMGWYRQAPGKERELVATITRSSGSTYYADSVKGRFTISRDNAKNTVYLQMNSLKPEDTAVYYCAARGPYFNRGTRYDYWGQGTQVTVSS”, the “polyreactivity (PSR sort gate)” value is recorded as “high polyreactivity”.

“QVQLVESGGGLVQAGGSLRLSCAASGIFVSYAMGWYRQAPGKDRAVVAAISSSGGSTYYADSVKGRFTISRDNAKNTVYLQMNSLKPEDTAVYYGAARLVKSQTTVQGYYWGQGTQVTVSS”: the “polyreactivity (PSR sort gate)” value is “high polyreactivity”.

For “QVQLVESGGGLVQAGGSLRLSCAASGIICVKYTMGWYRQAPGKERELVAAISRSGGSTYYADSVKGRFTISRDNAKNTVYLQMNSLKPEDTAVYYCNAVSRKVYPGPMDYWGHGTQVTVSS”, the “polyreactivity (PSR sort gate)” value is reported as “high polyreactivity”.

For the sequence “QVQLVESGGGLVQAGGSLRLSCAASGIICYENTMGWYRQAPGKERELVAAINSGGSTYYADSVKGRFTISRDNAKNTVYLQMNSLKPEDTAVYYCAADDYSGLYYSSTYRYEYWGQGTQVTVSS”, the “polyreactivity (PSR sort gate)” value is “low polyreactivity”. In the case of “QVQLVESGGGLVQAGGSLRLSCAASGIIFAANAMAWYRQAPGKERELVAAISKNGGITYYADSVKGRFTISRDNAKNTVYLQMNSLIPEDTAVYDCSARWRQTRRYYYWGQGTKVTVSS” it was “high polyreactivity”; in that of “QVQLVESGGGLVQAGGSLRLSCAASGIIFADYAMGWSRQAPGKERELVAAISSGDSTYYADSVKGRFTMSLDNAKNTVYLQMNSLKPEDTAVYYSAARLFRNKYRIAKMNYWGQGTQVTVSS”, “high polyreactivity”. “QVQLVESGGGLVQAGGSLRLSCAASGIIFAIYAMGWYRQAPGKESELVAAITWRGGSTYYADSVKGRFTISRDNAKNTVYLQRNSLKPEDTAVYYCDAVTKSLYGYDYWGQGSQVTVSS”: the “polyreactivity (PSR sort gate)” value is on record as “low polyreactivity”. In the case of “QVQLVESGGGLVQAGGSLRLSCAASGIIFAKYAMGWYRQAPGKERELVAGISRSGGRTYYADSVKGRFTISRDNAKNTVYLQMNSLKPEDTAVYYCAAVPHGTGGWWKYDYWGQGTQVTVSS”, the “polyreactivity (PSR sort gate)” value was “high polyreactivity”.

Turning to “QVQLVESGGGLVQAGGSLRLSCAASGIIFANNDMGWSRQAPGKERELVAVITFSDGSTYYADSVKGRFTISRDNAKNTVYLQMNSLKPEDTAVYYCATRIRSYYYWGQGTQVTVSS”, the “polyreactivity (PSR sort gate)” value is recorded as “high polyreactivity”. With “QVQLVESGGGLVQAGGSLRLSCAASGIIFAQYVMGWYRQAPGKERQLVAAIRTSGGRTYYADSVKGRFTISRDHAKITVYLQMISLKPVDTAVYYCAAYGKPTFRSVDYWGQGTQVTVSS”, the “polyreactivity (PSR sort gate)” value is reported as “high polyreactivity”. As for “QVQLVESGGGLVQAGGSLRLSCAASGIIFASNAMGWYRQAPGKERELVAAISRSGGRTYYADSVKGRFTISRDNAKNTVYLQMNSLKPEDTAVYYCNAVQFGATAYDYWGQGTQVTVSS”, the “polyreactivity (PSR sort gate)” value is “high polyreactivity”. Turning to “QVQLVESGGGLVQAGGSLRLSCAASGIIFASYALGWYRQAPGKERELVAAISGGGSTYYADSVKGRFTISRDNAKNTVYLQMNSLKPEDTAVYYCNADVTLRLWAYYYYRYNYWGQGTQVTVSS”, the “polyreactivity (PSR sort gate)” value is recorded as “low polyreactivity”. On to “QVQLVESGGGLVQAGGSLRLSCAASGIIFAWYVKGWYRQAPGKERELVAAITQSGGSTFYADSVKWRFTISRDNAKNTVYLQMNSLKPEDTAVYYCNREYWGRGYYRVRGEYDYWGQGTQVTVSS”, for which the “polyreactivity (PSR sort gate)” value is recorded as “low polyreactivity”. With “QVQLVESGGGLVQAGGSLRLSCAASGIIFAYYAMGWYRQAPGKERELVAAISWSGTSTYYADSVKGRFTISRDTATNTVYLQMNSLKPEDTAVYYCNAYGLYSDMDYWGQGTQVTVSS”, the “polyreactivity (PSR sort gate)” value was “high polyreactivity”. The same measure for “QVQLVESGGGLVQAGGSLRLSCAASGIIFAYYAMGWYRQAPGKERELVAAMNRSGGTTYYADSVKGRFTISRDNAKNTLYLQMNSLKPEDTAVYYCNALTTWRYRYDYWGQGTQVTVSS”: “high polyreactivity”; for “QVQLVESGGGLVQAGGSLRLSCAASGIIFAYYAMGWYRQAPGKERELVATITSGSNTNYADSVKGRFTISRDNAQNTVYLQMNSLKPEDTAVYYWGQGTQVTVSS”: “low polyreactivity”; for “QVQLVESGGGLVQAGGSLRLSCAASGIIFAYYAMGWYRQAPGKERELVGTNYADSVKGRFTISRDNAKNTVYLQMNSLKPEDTAVYYCNTEWTSLSKSSLGGRYDHWGQGTQVTVSS”: “low polyreactivity”. With “QVQLVESGGGLVQAGGSLRLSCAASGIIFDDYAMGWYRQAPGKERELVAAISRGGSTYYADSVKGRFTISRDNAKNTVYIQMNSLKPEDTAVYYCAAVVYTIYARYGYCGQGTQVTVSS”, the “polyreactivity (PSR sort gate)” value is reported as “high polyreactivity”.

On to “QVQLVESGGGLVQAGGSLRLSCAASGIIFDDYAMGWYRQAPGKERELVAVISSSGGNTYYADSVKGRFTISRDNAKNSVYLQMNSLKPEDTAVYYCAATYYYKSIYWFEYLGQGTQVTVSS”, for which the “polyreactivity (PSR sort gate)” value was “low polyreactivity”. With “QVQLVESGGGLVQAGGSLRLSCAASGIIFDGNVMGWYRQAPGKEREFVASISISGGSTSYADSVKGRFTISRDNAKNTVYLQMNSLKPEDTAVYYCNTDVGYGRVWRWRYHGDYWGQGTQVTVSS”, the “polyreactivity (PSR sort gate)” value is listed as “low polyreactivity”. With “QVQLVESGGGLVQAGGSLRLSCAASGIIFDGYTMGWYRQAPGTERELVAAITTSGTSTYYADSVKGRFTISRDNAKNTVYLQMNSLKPEDTAVYYCNAVRRGLPVVGAYDYWGQGTQVTVSS”, the “polyreactivity (PSR sort gate)” value is on record as “high polyreactivity”. Turning to “QVQLVESGGGLVQAGGSLRLSCAASGIIFDSYAMGWYRQAPGKERELVAAITSDSGRTYYADSVKGRFTISRDNAKKTVYLQMNSLKPEYTAVYYFAKRWDGPYDYWGQGTQVTVSS”, the “polyreactivity (PSR sort gate)” value is “low polyreactivity”. Turning to “QVQLVESGGGLVQAGGSLRLSCAASGIIFDSYVMGWYRQAPGKERELVAAISFRGGSTYYADSVKGRFTISRDNAKNTVYLQMNSLKPEDTAVYYCAAEGRGYTEYYWGQGTQVTVSS”, the “polyreactivity (PSR sort gate)” value is “high polyreactivity”.

The values are drawn from the nanobody polyreactivity screen of Harvey et al. (2022).
